Measured values: publication PMC11229335, “The translocation activity of Rad54 reduces crossover outcomes during homologous recombination”
Where a chain is given by its changes, count along the chain named.

What was measured:
Test in all cases: EMSA; 3 mM MgCl2; 0-50 nM protein, 10 nM DNA; EMSA: 35 mM Tris-Cl pH 7.5, 3 mM MgCl2, 50 mM KCl, 1 mM DTT, 10% glycerol, 30 C, 5 min; curtains: 20 mM Tris-OAc pH 7.5, 50 mM NaCl, 10 mM MgOAc2, 200 ng/ul BSA, 1 mM DTT
Settings in all cases: protein: recombinant; label: 5'-Atto647N on strand 1; blunt
[1] = target: T1, Rad54 (Saccharomyces cerevisiae, UniProt P32863 1-898)
T1 sequence: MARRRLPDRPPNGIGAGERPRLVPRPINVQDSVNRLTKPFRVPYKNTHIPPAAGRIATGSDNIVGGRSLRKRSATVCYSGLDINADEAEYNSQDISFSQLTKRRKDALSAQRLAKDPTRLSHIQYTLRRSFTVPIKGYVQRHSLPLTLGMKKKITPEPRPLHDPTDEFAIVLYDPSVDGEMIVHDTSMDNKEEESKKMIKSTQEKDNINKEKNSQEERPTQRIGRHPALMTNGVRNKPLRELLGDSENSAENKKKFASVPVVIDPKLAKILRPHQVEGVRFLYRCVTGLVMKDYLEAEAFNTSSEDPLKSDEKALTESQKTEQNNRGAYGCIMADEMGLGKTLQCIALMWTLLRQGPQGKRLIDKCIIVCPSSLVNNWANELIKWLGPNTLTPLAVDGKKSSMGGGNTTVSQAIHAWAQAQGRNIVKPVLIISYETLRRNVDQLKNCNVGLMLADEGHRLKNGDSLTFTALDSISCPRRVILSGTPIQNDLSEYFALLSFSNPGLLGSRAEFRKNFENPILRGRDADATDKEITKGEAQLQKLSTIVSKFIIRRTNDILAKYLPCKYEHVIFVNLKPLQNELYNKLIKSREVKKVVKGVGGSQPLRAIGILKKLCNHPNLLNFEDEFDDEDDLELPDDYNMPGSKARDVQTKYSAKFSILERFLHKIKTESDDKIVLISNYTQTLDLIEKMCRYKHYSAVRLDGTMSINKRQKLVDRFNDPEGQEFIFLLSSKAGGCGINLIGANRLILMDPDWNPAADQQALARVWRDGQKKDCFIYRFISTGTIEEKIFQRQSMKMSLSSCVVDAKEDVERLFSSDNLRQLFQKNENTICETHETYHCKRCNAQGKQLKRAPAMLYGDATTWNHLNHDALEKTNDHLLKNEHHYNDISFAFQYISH

[2] = target: T2, Rad54 R272A (Saccharomyces cerevisiae, UniProt P32863 1-898, R272A)
T2 sequence: T1 sequence with R272A

[3] = target: T3, Rad54 R272Q (Saccharomyces cerevisiae, UniProt P32863 1-898, R272Q)
T3 sequence: T1 sequence with R272Q

Measured: binding result

B1: 90-mer EMSA dsDNA (dsDNA)
DNA 1: TGTAAAACGACGGCCAGTGAATTCGAGCTCGGTACCCGGGGATCCTCTAGAGTCGACCTGCAGGCATGCAAGCTTGGCGTAATCATGGTC
DNA 2: GACCATGATTACGCCAAGCTTGCATGCCTGCAGGTCGACTCTAGAGGATCCCCGGGTACCGAGCTCGAATTCACTGGCCGTCGTTTTACA
binds: all assays above
